In PMC9975944 (The EMBO Journal, 2023):

Target: T1, GFP-SOX7 (UniProt Q9BT81 1-388)
T1 sequence: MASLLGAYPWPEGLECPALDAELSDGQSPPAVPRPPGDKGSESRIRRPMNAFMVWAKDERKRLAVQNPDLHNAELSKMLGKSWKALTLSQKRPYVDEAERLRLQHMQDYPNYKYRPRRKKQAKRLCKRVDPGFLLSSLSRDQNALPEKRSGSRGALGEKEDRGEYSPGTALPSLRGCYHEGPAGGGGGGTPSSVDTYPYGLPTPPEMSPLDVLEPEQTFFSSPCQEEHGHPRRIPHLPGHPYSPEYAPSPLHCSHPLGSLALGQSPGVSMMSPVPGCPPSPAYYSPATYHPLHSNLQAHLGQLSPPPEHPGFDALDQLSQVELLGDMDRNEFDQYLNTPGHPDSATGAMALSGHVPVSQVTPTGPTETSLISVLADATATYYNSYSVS
Test: single-molecule two-colour coincidence spectroscopy

B1: HEY1-Cherry (natural protein)
chain: MKRAHPEYSSSDSELDETIEVEKESADENGNLSSALGSMSPTTSSQILARKRRRGIIEKRRRDRINNSLSELRRLVPSAFEKQGSAKLEKAEILQMTVDHLKMLHTAGGKGYFDAHALAMDYRSLGFRECLAEVARYLSIIEGLDASDPLRVRLVSHLNNYASQREAASGAHAGLGHIPWGTVFGHHPHIAHPLLLPQNGHGNAGTTASPTEPHHQGRLGSAHPEAPALRAPPSGSLGPVLPVVTSASKLSPPLLSSVASLSAFPFSFGSFHLLSPNALSPSAPTQAANLGKPYRPWGTEIGAF
**Q.** How did the coincidence ratio turn out when B1 was run?
**A.** The coincidence ratio was 0.66.
